PMC10199079, “ERK and USP5 govern PD-1 homeostasis via deubiquitination to modulate tumor immunotherapy” (Nature Communications, 2023)

How the values were obtained:
USP5 [1] = molecular target: USP5 (UniProt P45974); experiment: anti-HA co-immunoprecipitation, immunoblot; conditions: reference: PD-1 wild type; sites T234
USP5 [2] = molecular target: USP5 (UniProt P45974); experiment: GST-USP5 pull-down from cell lysate; conditions: reference: PD-1-cHA wild type lysate; sites T234
USP5 UBA1/2 domains = USP5 UBA1/2 domains (UniProt P45974); experiment: biotin-peptide streptavidin pull-down; conditions: reference: unphosphorylated PD-1 peptide; sites T234
USP5 [3] = molecular target: USP5 (UniProt P45974); experiment: biotin-peptide streptavidin pull-down; conditions: reference: unphosphorylated PD-1 peptide; sites T234
USP5 [4] = molecular target: USP5 (UniProt P45974); experiment: GST pull-down with purified His-USP5; conditions: reference: GST-PD-1 (192-288) wild type, ERK1-treated; sites T234
His-USP5 = molecular target: T1, His-USP5 (human, UniProt P45974 1-858); experiment: pull-down; bacterially purified GST-PD-1 (192-288) phosphorylated by ERK1 in vitro, then GST pull-down with purified recombinant His-USP5, immunoblot; conditions: both partners purified
T1 construct: recombinant human USP5, His-tagged; also called recombinant human USP5 protein; purified recombinant His-USP5; source: bought: Sino biological (12772-H08B), purified recombinant USP5 from baculovirus-insect cells
T1 sequence (looked up): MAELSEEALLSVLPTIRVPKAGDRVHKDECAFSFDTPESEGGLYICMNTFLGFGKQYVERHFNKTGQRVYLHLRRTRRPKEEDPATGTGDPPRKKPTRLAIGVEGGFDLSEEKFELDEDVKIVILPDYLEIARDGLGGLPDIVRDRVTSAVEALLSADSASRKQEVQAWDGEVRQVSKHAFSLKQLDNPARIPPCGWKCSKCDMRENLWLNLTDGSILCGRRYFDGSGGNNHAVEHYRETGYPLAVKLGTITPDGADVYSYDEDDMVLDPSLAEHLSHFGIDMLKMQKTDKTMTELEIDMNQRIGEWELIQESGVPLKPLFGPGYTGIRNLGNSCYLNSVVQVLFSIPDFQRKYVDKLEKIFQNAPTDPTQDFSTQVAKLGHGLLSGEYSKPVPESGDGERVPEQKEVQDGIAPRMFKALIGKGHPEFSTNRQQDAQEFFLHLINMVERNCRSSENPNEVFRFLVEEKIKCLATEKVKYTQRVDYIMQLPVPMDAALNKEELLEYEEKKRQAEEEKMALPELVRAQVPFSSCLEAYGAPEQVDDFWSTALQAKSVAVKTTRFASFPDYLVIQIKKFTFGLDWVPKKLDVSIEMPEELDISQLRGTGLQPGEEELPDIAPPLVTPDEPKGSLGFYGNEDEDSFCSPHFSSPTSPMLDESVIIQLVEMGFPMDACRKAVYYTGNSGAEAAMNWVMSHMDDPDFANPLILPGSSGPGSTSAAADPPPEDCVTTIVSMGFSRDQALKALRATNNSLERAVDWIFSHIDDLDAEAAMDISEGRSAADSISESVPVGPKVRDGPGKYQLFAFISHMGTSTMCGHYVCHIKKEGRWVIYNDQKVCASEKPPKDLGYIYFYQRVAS

Molecule: PD-1 (from UniProt Q15116) PD-1 T234A
- binding against the reference (USP5 [1]): weaker

Molecule: PD-1 (from UniProt Q15116) PD-1-cHA T234A lysate
- binding against the reference (USP5 [2]): weaker

Molecule: PD-1 (from UniProt Q15116) pT234 PD-1 peptide
- binding against the reference (USP5 UBA1/2 domains): gained
- binding against the reference (USP5 [3]): gained

Molecule: PD-1 cytoplasmic region, 192-288 (from UniProt Q15116) GST-PD-1 (192-288) T234A, ERK1-treated
- binding against the reference (USP5 [4]): weaker

B1: ERK1-phosphorylated GST-PD-1 (192-288) (domain or fragment, human, UniProt Q15116 192-288, looked up)
chain: CSRAARGTIGARRTGQPLKEDPSAVPVFSVDYGELDFQWREKTPEPPVPCVPEQTEYATIVFPSGMGTSSPARRGSADGPRSAQPLRPEDGHCSWPL
modifications: phosphorylated by ERK1 in vitro (the paper maps the ERK site to Thr234)
notes: source: E. coli BL21, purified, then phosphorylated by ERK1 in vitro
- binding result (His-USP5): binds
